Earlier results on one substance are cited in article PMC9849996.

This data set addresses ROS-GC1 (Bos taurus) (UniProt P55203). In words: SPR; given as Ka.
UniProt P55203, sequence (P55203 57-1110): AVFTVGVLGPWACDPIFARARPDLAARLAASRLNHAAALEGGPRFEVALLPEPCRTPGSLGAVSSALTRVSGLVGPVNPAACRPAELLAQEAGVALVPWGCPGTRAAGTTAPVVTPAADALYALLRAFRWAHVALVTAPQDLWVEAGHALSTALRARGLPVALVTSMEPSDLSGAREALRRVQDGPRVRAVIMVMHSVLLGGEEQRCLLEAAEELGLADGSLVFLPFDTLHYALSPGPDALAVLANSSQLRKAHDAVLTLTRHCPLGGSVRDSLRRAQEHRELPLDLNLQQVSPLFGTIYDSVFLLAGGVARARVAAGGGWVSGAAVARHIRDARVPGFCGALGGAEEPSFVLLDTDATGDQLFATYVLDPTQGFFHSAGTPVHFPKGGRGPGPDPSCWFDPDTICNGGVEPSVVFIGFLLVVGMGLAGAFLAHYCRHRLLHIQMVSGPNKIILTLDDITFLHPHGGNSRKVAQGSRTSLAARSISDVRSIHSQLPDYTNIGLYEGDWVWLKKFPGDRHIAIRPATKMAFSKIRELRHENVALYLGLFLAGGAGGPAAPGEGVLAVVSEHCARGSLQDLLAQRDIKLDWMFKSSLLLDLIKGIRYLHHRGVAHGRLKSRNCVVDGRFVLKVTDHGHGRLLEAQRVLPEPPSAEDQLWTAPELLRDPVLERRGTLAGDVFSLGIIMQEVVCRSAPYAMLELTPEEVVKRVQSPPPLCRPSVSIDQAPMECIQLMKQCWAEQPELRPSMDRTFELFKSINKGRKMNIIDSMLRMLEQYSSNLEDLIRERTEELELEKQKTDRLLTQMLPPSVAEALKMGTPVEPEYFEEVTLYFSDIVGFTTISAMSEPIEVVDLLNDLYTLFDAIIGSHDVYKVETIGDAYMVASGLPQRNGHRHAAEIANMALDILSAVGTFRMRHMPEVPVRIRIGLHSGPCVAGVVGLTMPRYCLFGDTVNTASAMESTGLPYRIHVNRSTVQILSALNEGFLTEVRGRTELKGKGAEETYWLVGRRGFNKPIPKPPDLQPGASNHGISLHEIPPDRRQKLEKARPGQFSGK

For orientation: Kd means the concentration at which binding is half-saturated. Consider frequenin (from UniProt Q2V8Y7), for which the Kd was 426 nM.
